Positions count from the first letter of the chain named. In names and notes the source's numbering stands.
Target: T1, TNFR1 (Homo sapiens, UniProt P19438)
T1 chain: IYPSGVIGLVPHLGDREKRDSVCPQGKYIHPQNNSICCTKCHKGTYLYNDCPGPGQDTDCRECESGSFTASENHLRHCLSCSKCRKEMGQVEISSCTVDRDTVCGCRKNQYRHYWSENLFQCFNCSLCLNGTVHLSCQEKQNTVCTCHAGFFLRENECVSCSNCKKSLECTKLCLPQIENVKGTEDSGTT
Assay: yeast display SC50

B1: A106S (designed binder)
chain: MTLQELLREEALRRAEAEAFRYALELLAEKFPEQKEYLLDLAEEIESQIRSLSGVDVEDVRKFLDKEWAWVKELLAEHPAELAEVEAARAARLAELRAEVEAKVAS
  apparent Kd (screen): 0.653 nM

B2: E46L (designed binder)
chain: B1 chain with E46L, S106A
  apparent Kd (screen): 0.539 nM

B3: A11V (designed binder)
chain: B1 chain with A11V, S106A
  apparent Kd (screen): 0.49 nM

B4: A28R (designed binder)
chain: B1 chain with A28R, S106A
  apparent Kd (screen): 12.5 nM

B5: F20W (designed binder)
chain: B1 chain with F20W, S106A
  apparent Kd (screen): 4.83 nM

B6: K66M (designed binder)
chain: B1 chain with K66M, S106A
  apparent Kd (screen): 0.593 nM

B7: A106E (designed binder)
chain: B1 chain with S106E
  apparent Kd (screen): 0.79 nM

B8: A88C (designed binder)
chain: B1 chain with A88C, S106A
  apparent Kd (screen): 0.653 nM

B9: F31N (designed binder)
chain: B1 chain with F31N, S106A
  apparent Kd (screen): 0.593 nM

B10: A69Y (designed binder)
chain: B1 chain with A69Y, S106A
  apparent Kd (screen): 1.05 nM

B11: E95R (designed binder)
chain: B1 chain with E95R, S106A
  apparent Kd (screen): 0.593 nM

B12: L52I (designed binder)
chain: B1 chain with L52I, S106A
  apparent Kd (screen): 0.539 nM

B13: R14F (designed binder)
chain: B1 chain with R14F, S106A
  apparent Kd (screen): 0.653 nM

B14: E33K (designed binder)
chain: B1 chain with E33K, S106A
  apparent Kd (screen): 1.05 nM

B15: R61C (designed binder)
chain: B1 chain with R61C, S106A
  apparent Kd (screen): 0.956 nM

B16: Y22I (designed binder)
chain: B1 chain with Y22I, S106A
  apparent Kd (screen): 0.956 nM

B17: Q34E (designed binder)
chain: B1 chain with Q34E, S106A
  apparent Kd (screen): 0.653 nM

B18: E43P (designed binder)
chain: B1 chain with E43P, S106A
  apparent Kd (screen): 1.16 nM

B19: L82D (designed binder)
chain: B1 chain with L82D, S106A
  apparent Kd (screen): 5.84 nM

B20: A87R (designed binder)
chain: B1 chain with A87R, S106A
  apparent Kd (screen): 0.446 nM

B21: L12A (designed binder)
chain: B1 chain with L12A, S106A
  apparent Kd (screen): 0.79 nM

B22: Q48I (designed binder)
chain: B1 chain with Q48I, S106A
  apparent Kd (screen): 5.84 nM

B23: P79D (designed binder)
chain: B1 chain with P79D, S106A
  apparent Kd (screen): 0.539 nM

B24: E44L (designed binder)
chain: B1 chain with E44L, S106A
  apparent Kd (screen): 13.8 nM

B25: F63H (designed binder)
chain: B1 chain with F63H, S106A
  apparent Kd (screen): 6.43 nM

B26: I45R (designed binder)
chain: B1 chain with I45R, S106A
  apparent Kd (screen): 11.4 nM

B27: K35Q (designed binder)
chain: B1 chain with K35Q, S106A
  apparent Kd (screen): 0.718 nM

B28: E81Y (designed binder)
chain: B1 chain with E81Y, S106A
  apparent Kd (screen): 0.446 nM

B29: I45M (designed binder)
chain: B1 chain with I45M, S106A
  apparent Kd (screen): 12.5 nM

B30: A88G (designed binder)
chain: B1 chain with A88G, S106A
  apparent Kd (screen): 0.79 nM

B31: V71L (designed binder)
chain: B1 chain with V71L, S106A
  apparent Kd (screen): 0.593 nM

B32: L74E (designed binder)
chain: B1 chain with L74E, S106A
  apparent Kd (screen): 2.48 nM

B33: D59H (designed binder)
chain: B1 chain with D59H, S106A
  apparent Kd (screen): 0.869 nM

B34: E29T (designed binder)
chain: B1 chain with E29T, S106A
  apparent Kd (screen): 0.653 nM

B35: H78W (designed binder)
chain: B1 chain with H78W, S106A
  apparent Kd (screen): 0.446 nM

B36: E16R (designed binder)
chain: B1 chain with E16R, S106A
  apparent Kd (screen): 2.05 nM

B37: L3S (designed binder)
chain: B1 chain with L3S, S106A
  apparent Kd (screen): 15.2 nM

B38: V71Y (designed binder)
chain: B1 chain with V71Y, S106A
  apparent Kd (screen): 2.48 nM

B39: R89L (designed binder)
chain: B1 chain with R89L, S106A
  apparent Kd (screen): 0.79 nM

B40: E5M (designed binder)
chain: B1 chain with E5M, S106A
  apparent Kd (screen): 0.593 nM

B41: D56K (designed binder)
chain: B1 chain with D56K, S106A
  apparent Kd (screen): 2.25 nM

B42: A69P (designed binder)
chain: B1 chain with A69P, S106A
  apparent Kd (screen): 16.7 nM

B43: E58V (designed binder)
chain: B1 chain with E58V, S106A
  apparent Kd (screen): 0.49 nM

B44: A80N (designed binder)
chain: B1 chain with A80N, S106A
  apparent Kd (screen): 1.27 nM

B45: A87I (designed binder)
chain: B1 chain with A87I, S106A
  apparent Kd (screen): 0.869 nM

B46: L7W (designed binder)
chain: B1 chain with L7W, S106A
  apparent Kd (screen): 24.4 nM

B47: L38G (designed binder)
chain: B1 chain with L38G, S106A
  apparent Kd (screen): 24.4 nM

B48: G54N (designed binder)
chain: B1 chain with G54N, S106A
  apparent Kd (screen): 1.4 nM

B49: A105R (designed binder)
chain: B1 chain with A105R, S106A
  apparent Kd (screen): 0.718 nM

B50: V55C (designed binder)
chain: B1 chain with V55C, S106A
  apparent Kd (screen): 0.79 nM

B51: L82R (designed binder)
chain: B1 chain with L82R, S106A
  apparent Kd (screen): 1.86 nM

B52: Y37F (designed binder)
chain: B1 chain with Y37F, S106A
  apparent Kd (screen): 2.48 nM

B53: E16V (designed binder)
chain: B1 chain with E16V, S106A
  apparent Kd (screen): 0.446 nM

B54: L3H (designed binder)
chain: B1 chain with L3H, S106A
  apparent Kd (screen): 2.25 nM

B55: S53C (designed binder)
chain: B1 chain with S53C, S106A
  apparent Kd (screen): 24.4 nM

Reference: paper PMC12416549 (2024)
